Patent publication US7666414B2

Target: prostate specific membrane antigen (PSMA) on LNCaP cells (human) (UniProt Q04609)

tumor uptake of the 131I-labelled antibody in nude mice bearing LNCaP tumors, one day post injection (% injected dose/gram) (% injected dose/gram): 4.41
Substance: irrelevant IgG antibody
